Experiments:
[1] = Oral gavage of engineered E. coli Nissle in mice, metabolites and body weight; type: in vivo, mice (NMRI); details: carbidopa 10 mg/kg IP every 24 h
Protocol: Female mice (NMRI, supplied by Taconic Biosciences, 6 weeks of age) were group-housed on a 12-h light:dark cycle at constant temperature with ad libitum access to food and water in a Specific Pathogen Free (SPF) facility. Upon delivery, mice were given 5 days to adjust to new location. Cohort size was 8 animals, and 4 different cohorts were tested, see below. All animals received Streptomycin (5 g/L) in the drinking water to ensure colonization, 3 days before being gavaged and throughout the experiment. A single oral gavage of 10^8 cells was administered of either L-DOPA-producing (called ‘EcN_DOPA’) or a control E. coli Nissle (‘EcN_CTRL’) strain without expression of the tyrosine hydroxylase gene. Samples were taken for the following 7 days, after which animals were euthanized and final blood samples and gut content samples were collected. […] Fresh fecal samples were collected daily for 7 days to quantify colonization and metabolite levels. […]
In vivo sample analysis: Plasma, tissue samples, gut content and fecal samples were analyzed for DOPA-derived and related serotonin metabolites using LC-MS. […] Gut and brain tissue was also frozen for real-time quantitative PCR (RT-qPCR) and metabolite analysis. Quantification of metabolites from in vivo samples was performed as described above (‘LC-MS analysis’).

E. faecalis = assay: Bacteriocin assay (halos on BHI agar); type: cell-based; details: overnight 37 C, FIG. 6C
Protocol: Three colonies of each E. coli Nissle strain were inoculated in 5 ml of BHI broth and grown overnight at 37° C. in a shaking incubator. The following day, 1 ml of the culture was washed with PBS buffer once and 10 μl were used to spot the strains on top of a BHI agar plate. After drying, top BHI agar was mixed with 500 μl of previously grown E. faecalis, and was placed on top of the BHI agar containing the dried spots of the E. coli strains. Plates were dried for 10 minutes and then incubated at 37° C. overnight.

C[C@@](Cc1ccc(O)c(O)c1)(NN)C(=O)O [carbidopa]
Plasma serotonin levels ([1]; EcN_DOPA p=0.08): reduced
Serotonin (5-HT) concentrations in urine ([1]; single oral gavage 10^8 cells, EcN_DOPA vs control strain p=0.06): decreased below detection level

B1: ubericin A: bacteriocin (SEQ ID NO. 29) co-expressed by L-DOPA producing E. coli Nissle (protein)
chain: MKKTAIAIAVALAGFATVAQAKTVNYGNGLYCNQKKCWVNWSETATTIVNNSIMNGLTGGNAGWHSGGRA
modifications: Ubericin A
inhibition of E. faecalis around EcN spots (E. faecalis): halos of inhibition

B2: Hiracin JM79: bacteriocin (SEQ ID NO. 27) co-expressed by L-DOPA producing E. coli Nissle (protein)
chain: MKKTAIAIAVALAGFATVAQAATYYGNGLYCNKEKCWVDWNQAKGEIGKIIVNGWVNHGPWAPRR
modifications: Hiracin JM79
inhibition of E. faecalis around EcN spots (E. faecalis): halos of inhibition

B3: Enterocin A: bacteriocin (SEQ ID NO. 31) co-expressed by L-DOPA producing E. coli Nissle, pMUT-DOPA_5-EntA (protein)
chain: MKKTAIAIAVALAGFATVAQATTHSGKYYGNGVYCTKNKCTVDWAKATTCIAGMSIGGFLGGAIPGKC
modifications: Enterocin A
inhibition of E. faecalis around EcN spots (E. faecalis): halos of inhibition

— patent US20230263864A1, “THERAPEUTIC MICROBES” (Danmarks Tekniske Universitet, priority 2020, published 2023)
